Data from PMC10786891, “Massively parallel profiling of RNA-targeting CRISPR-Cas13d”.

T1: EsCas13d, nuclease-dead (Eubacterium siraeum, UniProt B0MS50, R295A;H300A;R849A;H854A)
T1 sequence: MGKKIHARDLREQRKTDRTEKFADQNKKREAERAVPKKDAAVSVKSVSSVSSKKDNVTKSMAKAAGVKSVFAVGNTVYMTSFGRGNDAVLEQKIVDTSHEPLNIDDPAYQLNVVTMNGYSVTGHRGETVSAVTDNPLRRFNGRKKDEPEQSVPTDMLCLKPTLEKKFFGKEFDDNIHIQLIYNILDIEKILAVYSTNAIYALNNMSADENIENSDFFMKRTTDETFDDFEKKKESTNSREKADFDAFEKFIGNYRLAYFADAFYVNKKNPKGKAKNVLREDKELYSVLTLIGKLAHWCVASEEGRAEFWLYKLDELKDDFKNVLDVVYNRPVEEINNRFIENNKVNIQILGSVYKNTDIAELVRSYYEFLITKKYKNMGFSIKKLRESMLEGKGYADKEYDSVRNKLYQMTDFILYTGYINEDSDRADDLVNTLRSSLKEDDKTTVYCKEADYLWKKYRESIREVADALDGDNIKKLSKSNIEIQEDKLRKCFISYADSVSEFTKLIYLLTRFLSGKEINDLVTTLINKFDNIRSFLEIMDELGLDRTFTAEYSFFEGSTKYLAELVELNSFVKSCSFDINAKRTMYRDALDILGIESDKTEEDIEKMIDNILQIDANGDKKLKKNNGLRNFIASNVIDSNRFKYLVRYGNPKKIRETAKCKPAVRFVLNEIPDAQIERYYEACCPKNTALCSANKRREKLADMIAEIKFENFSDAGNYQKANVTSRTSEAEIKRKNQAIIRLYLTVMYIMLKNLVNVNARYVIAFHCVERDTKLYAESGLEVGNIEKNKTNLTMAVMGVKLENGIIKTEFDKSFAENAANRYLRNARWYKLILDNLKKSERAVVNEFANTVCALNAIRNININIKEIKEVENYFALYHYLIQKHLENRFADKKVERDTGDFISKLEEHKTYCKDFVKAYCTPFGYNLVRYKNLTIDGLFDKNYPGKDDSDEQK

B1: target 1 G12U,A18C (mixed)
RNA 1: CACCCGUGCAAAAAUGCAGGGGUCUAAAACUGAGCGGAUAACCUCUCUAUGG
RNA 2: GGGAAUGGAUCCACAUCUACGAAUUCGUACCAUCGAGAGUUUAUCCGCUCACCGAGAUCGGAAGAGCACACGU
B2: target 1 insU 3' of 18,insA 3' of 10 (mixed)
RNA 1: CACCCGUGCAAAAAUGCAGGGGUCUAAAACUGAGCGGAUAACCUCUCUAUGG
RNA 2: GGGAAUGGAUCCACAUCUACGAAUUCGUACCAUAUGAGAGGUUAAUCCGCUCACCGAGAUCGGAAGAGCACACGU
B3: target 1 insC 3' of 12,insG 3' of 9 (mixed)
RNA 1: CACCCGUGCAAAAAUGCAGGGGUCUAAAACUGAGCGGAUAACCUCUCUAUGG
RNA 2: GGGAAUGGAUCCACAUCUACGAAUUCGUACCAUAGAGAGGCUUAGUCCGCUCACCGAGAUCGGAAGAGCACACGU
B4: target 1 insG 3' of 22,insA 3' of 13 (mixed)
RNA 1: CACCCGUGCAAAAAUGCAGGGGUCUAAAACUGAGCGGAUAACCUCUCUAUGG
RNA 2: GGGAAUGGAUCCACAUCUACGAAUUCGUACGCAUAGAGAGAGUUAUCCGCUCACCGAGAUCGGAAGAGCACACGU
B5: target 1 insG 3' of 21,insG 3' of 3 (mixed)
RNA 1: CACCCGUGCAAAAAUGCAGGGGUCUAAAACUGAGCGGAUAACCUCUCUAUGG
RNA 2: GGGAAUGGAUCCACAUCUACGAAUUCGUACCGAUAGAGAGGUUAUCCGCUGCACCGAGAUCGGAAGAGCACACGU
B6: target 1 del5 (mixed)
RNA 1: CACCCGUGCAAAAAUGCAGGGGUCUAAAACUGAGCGGAUAACCUCUCUAUGG
RNA 2: GGGAAUGGAUCCACAUCUACGAAUUCGUACCAUAGAGAGGUUAUCCCUCACCGAGAUCGGAAGAGCACACGU
B7: target 1 insC 3' of 19,insA 3' of 3 (mixed)
RNA 1: CACCCGUGCAAAAAUGCAGGGGUCUAAAACUGAGCGGAUAACCUCUCUAUGG
RNA 2: GGGAAUGGAUCCACAUCUACGAAUUCGUACCAUCAGAGAGGUUAUCCGCUACACCGAGAUCGGAAGAGCACACGU
B8: target 1 A9U,A16G (mixed)
RNA 1: CACCCGUGCAAAAAUGCAGGGGUCUAAAACUGAGCGGAUAACCUCUCUAUGG
RNA 2: GGGAAUGGAUCCACAUCUACGAAUUCGUACCAUAGGGAGGUUUUCCGCUCACCGAGAUCGGAAGAGCACACGU
B9: target 1 insA 3' of 11,insU 3' of 2 (mixed)
RNA 1: CACCCGUGCAAAAAUGCAGGGGUCUAAAACUGAGCGGAUAACCUCUCUAUGG
RNA 2: GGGAAUGGAUCCACAUCUACGAAUUCGUACCAUAGAGAGGUAUAUCCGCUCUACCGAGAUCGGAAGAGCACACGU
B10: target 1 insU 3' of 22,insC 3' of 20 (mixed)
RNA 1: CACCCGUGCAAAAAUGCAGGGGUCUAAAACUGAGCGGAUAACCUCUCUAUGG
RNA 2: GGGAAUGGAUCCACAUCUACGAAUUCGUACUCACUAGAGAGGUUAUCCGCUCACCGAGAUCGGAAGAGCACACGU
B11: target 1 G5A,U8A (mixed)
RNA 1: CACCCGUGCAAAAAUGCAGGGGUCUAAAACUGAGCGGAUAACCUCUCUAUGG
RNA 2: GGGAAUGGAUCCACAUCUACGAAUUCGUACCAUAGAGAGGUUAACCACUCACCGAGAUCGGAAGAGCACACGU
B12: target 1 C6A,C22G (mixed)
RNA 1: CACCCGUGCAAAAAUGCAGGGGUCUAAAACUGAGCGGAUAACCUCUCUAUGG
RNA 2: GGGAAUGGAUCCACAUCUACGAAUUCGUAGCAUAGAGAGGUUAUCAGCUCACCGAGAUCGGAAGAGCACACGU
B13: target 1 insG 3' of 8,insU 3' of 5 (mixed)
RNA 1: CACCCGUGCAAAAAUGCAGGGGUCUAAAACUGAGCGGAUAACCUCUCUAUGG
RNA 2: GGGAAUGGAUCCACAUCUACGAAUUCGUACCAUAGAGAGGUUAUGCCGUCUCACCGAGAUCGGAAGAGCACACGU

Molecular target: T1, EsCas13d, nuclease-dead
Test: crRNA (strand 1, pre-loaded); Mg2+; 40 mM Tris-HCl pH 7.5, 150 mM NaCl, 6 mM MgCl2, 1 mM DTT, 0.1% Tween-20, 0.2 mg/ml BSA; 25 C; 10 min per concentration, then washed
Settings: tags: His6-TwinStrep-SUMO cleaved; N-terminal SNAP kept (SNAP-Surface 488); label: 3' end held by stalled T7 RNA polymerase

Binder	Kd [nM]
B1	40 ± 4
B2	41.2 ± 3.1
B3	24 ± 1.2
B4	11.5 ± 0.7
B5	43 ± 6
B6	10.4 ± 0.5
B7	29.8 ± 2.1
B8	67 ± 9
B9	22.2 ± 1.1
B10	18.3 ± 1.4
B11	45 ± 4
B12	39 ± 5
B13	15.7 ± 1.1
